We go through ten substances from article doi:10.1101/2022.05.07.491048.

pKd: −log10 of the molar value.

The first assay has as its target b-His6-BAK_(16-186) (UniProt Q16611).
Sequence of UniProt Q16611 (Q16611 16-186): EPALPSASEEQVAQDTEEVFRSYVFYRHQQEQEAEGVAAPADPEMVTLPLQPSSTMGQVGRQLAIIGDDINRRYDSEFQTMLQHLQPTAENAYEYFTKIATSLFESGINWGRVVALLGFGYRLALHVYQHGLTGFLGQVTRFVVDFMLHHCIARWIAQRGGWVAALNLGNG
Assay: not given
On to BNIP5 BH3 peptide, 5-FAM labelled, for which the negative logarithm of the Kd (pKd) (as a rule, −log10 of the Kd, conventionally taken in molar units) is 6.37.

For another assay the target is unchanged. Description: BLI.
Turning to His6-SUMO-BNIP5 BH3 (peptide), the koff – broadly, a measure of how fast the partners let go of each other – came to 0.16 s⁻¹.

A further assay has the same target. Description: fluorescence polarisation.
For BNIP5 BH3 peptide, 5-FAM labelled, the pKd is 6.40.

For CASP3 BH3 peptide, 5-FAM labelled, the pKd was under 4.70.

NBEAL2 BH3 peptide, 5-FAM labelled gave a pKd of under 4.70.

For the substance PXT1 BH3 peptide, 5-FAM labelled, the negative logarithm of the Kd (pKd) was 4.96.

Consider SLC19A1 BH3 peptide, 5-FAM labelled, for which the pKd was under 4.70.

The substance SPNS1 BH3 peptide, 5-FAM labelled gave a pKd of under 4.70.

The substance TERT BH3 peptide, 5-FAM labelled gave a pKd of under 4.70.

Substance TRIM58 BH3 peptide, 5-FAM labelled had a negative logarithm of the Kd (pKd) of under 4.70.

In the case of TRPM7 BH3 peptide, 5-FAM labelled, the pKd is under 4.70.
